{"source": "paper doi:10.1101/2021.03.15.435411", "key": {"[1]": {"target": "WAVE1ΔN, minimal Arp2/3-activating fragment of human WAVE1 (PVCA) (human)", "experiment": "FRET or BRET"}, "[2]": {"target": "WAVE1ΔN, minimal Arp2/3-activating fragment of human WAVE1 (PVCA) (human)", "experiment": "FRET or BRET", "remark": "listed apart in the source"}, "[3]": {"target": "Native bovine (β, γ)-actin (bovine) (UniProt P60712)", "experiment": "single-filament TIRF microscopy"}, "[4]": {"target": "Native bovine (β, γ)-actin (bovine) (UniProt P60712)", "experiment": "single-molecule / single-filament TIRF microscopy"}, "[5]": {"target": "Native bovine (β, γ)-actin (bovine) (UniProt P60712)", "experiment": "TIRF microscopy, KD calculated from rate constants"}}, "note": "“And” between values parts separate entries of the source, which are not always exact repeats. Equal values may be shown once. Read-outs that look alike come from different tables or passages of the source.", "data": [{"substance": "Atto540Q-quencher labeled Acanthamoeba castellani actin monomers (natural protein)", "values": [{"measurement": "percent quenching of NPF donor fluorescence", "setting": "[1]", "value": "59% and 69%"}, {"measurement": "percent quenching of NPF donor fluorescence", "setting": "[2]", "value": 14, "unit": "%"}]}, {"substance": "Capping protein lacking the last 23 amino acids of the β subunit (CPαβΔ23) (from UniProt P47753;P47757-2) (complex)", "values": [{"measurement": "fold change of koff against wild-type CP", "setting": "[3]", "value": 3, "unit": "fold"}, {"measurement": "fold change of kon against wild-type CP", "setting": "[4]", "value": 3, "unit": "fold"}, {"measurement": "fold reduction of affinity against wild-type CP", "setting": "[5]", "value": 10, "unit": "fold"}]}]}
